Laboratory results taken from patent US20210388110A1.
Numbering of substitutions follows the chain as printed.

B1: TR01H084-E2702GsKsc/L0011-k0 (antibody, human IgG4 S228P, kappa, N297A)
heavy: QVQLVESGGGVVQPGGSLRLSCAASGFTFSNAWMHWVRQAPGKGLEWVAQIKDKSQNYATYYAESVKGRFTISRADSKNSIYLQMNSLKTEDTAVYYCRYVHYAAGYGVDIWGQGTTVTVSSASTKGPSVFPLAPCSRSTSESTAALGCLVKDYFPEPVTVSWNSGALTSGVHTFPAVLQSSGLYSLSSVVTVPSSSLGTKTYTCNVDHKPSNTKVDKRVESKYGPPCPPCPAPEFRGGPKVFLFPPKPKDTLMISRTPEVTCVVVDVSQEDPEVQFNWYVDGVEVHNAKTKPREEQFASTYRVVSVLTVLHQDWLNGKEYKCKVSNKGLPSSIEKTISKAKGQPREPQVYTLPPSQKEMTKNQVSLTCLVKGFYPSDIAVEWESNGQPENNYKTTPPVLDSDGSFFLYSKLTVDKSRWQEGNVFSCSVMHEALHNRYTQKSLSLSP
light: DIVMTQSPLSLPVTPGEPASISCRSSQPLVHSNRNTYLHWYQQKPGQAPRLLIYKVSNRFSGVPDRFSGSGSGTDFTLKISRVEAEDVGVYYCGQGTQVPYTFGQGTKLEIKRTVAAPSVFIFPPSDEQLKSGTASVVCLLNNFYPREAKVQWKVDNALQSGNSQESVTEQDSKDSTYSLSSTLTLSKADYEKHKVYACEVTHQGLSSPVTKSFNRGEC
B2: TR01H082-E2702GsKsc/L0011-k0 (antibody, human IgG4 S228P, kappa, N297A)
heavy: B1 heavy with V11L, G16R, A75D, I81L, I111A
light: B1 light
B3: TR01H090-E2702GsKsc/L0011-k0 (antibody, human IgG4 S228P, kappa, N297A)
heavy: B1 heavy with V11L, A75D, I81L, I111A
light: B1 light
B4: TR01H093-E2702GsKsc/L0011-k0 (antibody, human IgG4 S228P, kappa, N297A, V domains shown)
VH: QVQLVESGGGLVQPGRSLRLSCAASGFTFSNAWMHWVRQAPGKGLEWVAQIKDKSQNYATYYAESVQGRFTISRDDSKNSLYLQMNSLKTEDTAVYYCRYVHYAAGYGVDAWGQGTTVTVSS
VL: DIVMTQSPLSLPVTPGEPASISCRSSQPLVHSNRNTYLHWYQQKPGQAPRLLIYKVSNRFSGVPDRFSGSGSGTDFTLKISRVEAEDVGVYYCGQGTQVPYTFGQGTKLEIKR
B5: TR01H094-E2702GsKsc/L0011-k0 (antibody, human IgG4 S228P, kappa, N297A, V domains shown)
VH: B4 VH with Q67S
VL: B4 VL
B6: TR01H114-E2702GsKsc/L0011-k0 (antibody, human IgG4 S228P, kappa, N297A, V domains shown)
VH: B4 VH with L11V, R16G, T60S, Q67K, D75A, L81I, A111I
VL: B4 VL
B7: TR01H092-E2702GsKsc/L0011-k0 (antibody, human IgG4 S228P, kappa, N297A, V domains shown)
VH: B4 VH with Q67A
VL: B4 VL
B8: TR01H100-E2702GsKsc/L0011-k0 (antibody, human IgG4 S228P, kappa, N297A, V domains shown)
VH: B4 VH with T60S, Q67K
VL: B4 VL
B9: TR01H111-E2702GsKsc/L0011-k0 (antibody, human IgG4 S228P, kappa, N297A)
heavy: B1 heavy with R19K
light: B1 light

The binders below were run against Mab Select SuRe Ligand (assay: SPR (Biacore T200), SuRe ligand on CM5 chip, antibody 5 ug/mL).

Compared with B1, B2 is lower in SuRe binding (RU): 5070 RU for the first, 4470 RU for the second.

Compared with B3, B4 is lower in SuRe binding (RU): 3610 RU for the first, 2460 RU for the second.

First: B5
Second: B6
The SuRe binding (RU) of the first is higher: 2350 RU for the first, 1490 RU for the second.

Compared with B7, B8 is lower in SuRe binding (RU): 1160 RU for the first, 383 RU for the second.

Binder B9 has a SuRe binding (RU) of 50.7 RU.
